Results from US20200140532A1 (Ablynx, published 2020).

T1: recombinant human Brevican (human, UniProt Q96GW7 23-911, limits assumed)
T1 sequence: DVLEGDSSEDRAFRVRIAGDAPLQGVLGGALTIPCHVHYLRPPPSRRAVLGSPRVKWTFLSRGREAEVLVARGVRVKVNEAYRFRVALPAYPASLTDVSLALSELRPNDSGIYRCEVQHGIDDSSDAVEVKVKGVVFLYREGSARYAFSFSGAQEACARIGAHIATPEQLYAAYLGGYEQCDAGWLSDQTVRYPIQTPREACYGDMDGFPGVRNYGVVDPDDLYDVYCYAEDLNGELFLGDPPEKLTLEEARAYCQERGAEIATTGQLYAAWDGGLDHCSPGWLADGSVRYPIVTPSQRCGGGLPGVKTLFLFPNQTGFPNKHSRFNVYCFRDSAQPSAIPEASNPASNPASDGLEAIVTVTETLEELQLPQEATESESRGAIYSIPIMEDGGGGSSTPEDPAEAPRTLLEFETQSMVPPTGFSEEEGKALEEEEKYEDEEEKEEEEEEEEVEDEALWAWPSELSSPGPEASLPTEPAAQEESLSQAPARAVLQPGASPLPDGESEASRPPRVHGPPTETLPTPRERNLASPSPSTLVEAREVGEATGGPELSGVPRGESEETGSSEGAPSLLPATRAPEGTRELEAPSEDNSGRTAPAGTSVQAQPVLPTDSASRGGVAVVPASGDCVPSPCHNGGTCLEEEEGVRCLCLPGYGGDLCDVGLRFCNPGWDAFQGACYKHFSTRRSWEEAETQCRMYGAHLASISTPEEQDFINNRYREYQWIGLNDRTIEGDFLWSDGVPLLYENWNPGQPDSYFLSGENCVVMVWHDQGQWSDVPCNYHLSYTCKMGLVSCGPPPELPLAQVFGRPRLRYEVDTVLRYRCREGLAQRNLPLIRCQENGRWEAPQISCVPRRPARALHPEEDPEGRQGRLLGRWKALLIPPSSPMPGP


How the values were obtained:
[1] = molecular target: T2, recombinant human Aggrecan G1-IGD-G2 (human, UniProt P16112 20-676); experiment: ELISA on recombinant G1-IGD-G2
T2 construct: Only the G1-IGD-G2 region was used (R&D Systems 1220-PG is named for the immunogen); also called Hu G1-IGD-G2

[2] = molecular target: T3, recombinant rat Aggrecan G1-IGD-G2 (rat, UniProt P07897 20-684, limits assumed); experiment: ELISA on recombinant G1-IGD-G2
T3 construct: also called Rat G1-IGD-G2

[3] = molecular target: T4, recombinant dog Aggrecan G1-IGD-G2 (dog, UniProt Q28343 20-693, limits assumed); experiment: ELISA on recombinant G1-IGD-G2
T4 construct: also called Dog G1-IGD-G2

[4] = molecular target: T5, recombinant bovine Aggrecan G1-IGD-G2 (bovine, UniProt P13608 20-684, limits assumed); experiment: ELISA on recombinant G1-IGD-G2
T5 construct: also called Bov G1-IGD-G2; Boy G1-IGD-G2

[5] = molecular target: T1, recombinant human Brevican; experiment: ELISA on recombinant human Brevican
[6] = molecular target: recombinant human Neurocan (human, UniProt O14594 23-1321, limits assumed); experiment: ELISA on recombinant human Neurocan
[7] = molecular target: T2, recombinant human Aggrecan G1-IGD-G2; experiment: SPR (ProteOn), off-rate only indicative
Experimental: (§1) SPR (ProteOn) experiments were carried out for the “monovalent” Aggrecan-ALB26 formats in order to determine off-rates.

[8] = molecular target: T3, recombinant rat Aggrecan G1-IGD-G2; experiment: SPR (ProteOn), off-rate only indicative
Experimental: as §1

[9] = molecular target: T4, recombinant dog Aggrecan G1-IGD-G2; experiment: SPR (ProteOn), off-rate only indicative
Experimental: as §1

[10] = molecular target: T5, recombinant bovine Aggrecan G1-IGD-G2; experiment: SPR (ProteOn), off-rate only indicative
Experimental: as §1

EC50 [1] | EC50 [2] | EC50 [3] | EC50 [4] | binding result [5] | binding result [6] | koff [7] | koff [8] | koff [9] | koff [10] | Binder
6 nM | 7.6 nM | 3 nM | 5.6 nM | no binding | no binding | 0.013 s⁻¹ | 0.65 s⁻¹ | 0.011 s⁻¹ | 0.47 s⁻¹ | C01010054 (114F08-ALB26) (VHH, not shown: small tags and cut ends, also called C010100054) VHH: EVQLVESGGGLVQAGGSLRLSCAASGSTFIINVVRWYRRTPGKQRELVATISSGGNANYVDSVRGRFSISRDGAKNAVDLQMNGLKPEDTAVYYCNVPTTHYGGVYYGPYWGQGTQVTVSS
5.1 nM | 0.32 nM | 0.61 nM | 1.2 nM | no binding | no binding | 0.0034 s⁻¹ | 0.00025 s⁻¹ | 0.0071 s⁻¹ | 0.0013 s⁻¹ | C01010046 (601E08-ALB26) (VHH, not shown: small tags and cut ends) VHH: DVQLVESGGGLVQPGGSLRLSCTASGRTFSSYAVGWFRQAPGKEREFVAAISRSGRSTYYADSVKGRFTISRDNSKNTVYLQMNSLRPEDTAVYYCAAGLSYYSPHAYYDYWGQGTLVTVSS
12 nM | 8.4 nM | 6.9 nM |  | no binding |  | 0.021 s⁻¹ | 0.021 s⁻¹ | 0.038 s⁻¹ | 0.027 s⁻¹ | C01010060 (606A07-ALB26) (VHH, not shown: small tags and cut ends) VHH: DVQLVESGGGLVQPGGSLRLSCVASGRTFSIYGMGWFRQAPGKEREFVAAINGGSRTYYADSVKGRFTISRDNSKNTVYLQMNSLRPEDTAVYYCAADRSGYGTSLDWWYDYWGQGTLVTVSS
0.24 nM | 0.33 nM | 25 nM | 0.28 nM | no binding | no binding | 0.0025 s⁻¹ | 0.0015 s⁻¹ | 0.083 s⁻¹ | 0.0027 s⁻¹ | C01010097 (608A05-ALB26) (VHH, not shown: small tags and cut ends) VHH: DVQLVESGGGLVQPGGSLRLSCAASGRTFSTYTMGWFRQAPGKEREFVAAISWSGGTTYYADSVKGRFTISRDNSKNTVYLQMNSLRPEDTAVYYCAARPRYYYYSLYSYDYWGQGTLVTVSS
1.2 nM | 5.9 nM | 2.6 nM | 1.6 nM | no binding | no binding | 0.17 s⁻¹ | 0.26 s⁻¹ | 0.12 s⁻¹ | 0.26 s⁻¹ | C01010094 (604F02-ALB26) (VHH, not shown: small tags and cut ends, also called C010100094) VHH: DVQLVESGGGLVQPGGSLRLSCAASGRTFSSYTMGWFRQAPGKEREFVAAISWSGGRTYYADSVKGRFTISRDNSKNTVYLQMNSLRPEDTAVYYCAAYRRRRASSNRGLWDYWGQGTLVTVSS
